Measured values: patent US8497072

Columns and labels:
[1] = target: Aβ(1-40) monomer (human); experiment: dot blot, 10 pmol antigen on nitrocellulose, 0.2 µg/ml antibody, densitometry
[2] = target: Aβ1-42 monomer (dot blot) (human); experiment: as above
[3] = target: endogenous Aβ(1-42) in human CSF (human); experiment: IP from AD patient CSF, urea-PAGE Western blot, share of Aβ42 in recovered Aβ40+42
[4] = target: endogenous Aβ(1-42) in human CSF (human); experiment: IP from CSF of MCI patients (n=4) with antibody-Sepharose, Aβ42 sandwich ELISA of eluate
[5] = target: endogenous Aβ(1-42) in human CSF (human); experiment: IP from CSF of AD patients (n=2), ratio of recovered Aβ42 to Aβ40
[6] = target: endogenous Aβ(1-40) in human CSF (human); experiment: IP from CSF of MCI patients (n=4) with antibody-Sepharose, Aβ40 sandwich ELISA of eluate
[7] = target: endogenous Aβ(1-40) in human CSF (human); experiment: IP from AD patient CSF with antibody on anti-mouse IgG Dynabeads, 8 M urea-PAGE and Western blot (82E1)
[8] = target: endogenous Aβ(1-42) in human CSF (human); experiment: as above
[9] = target: endogenous Aβ(1-40) in human CSF (human); experiment: IP from CSF of AD patients (n=2) with antibody-Sepharose, Aβ40 sandwich ELISA of eluate
[10] = target: Aβ(1-42) fibrils (human) (UniProt P05067); experiment: co-sedimentation with Aβ(1-42) fibrils, SDS-PAGE, densitometry of heavy chain in pellet and supernatant
[11] = target: endogenous Aβ(1-42) in human CSF (human); experiment: IP from CSF of AD patients (n=2) with antibody-Sepharose, Aβ42 sandwich ELISA of eluate
[12] = target: endogenous Aβ(1-42) in human CSF (human); experiment: IP from CSF of MCI patients (n=4), ratio of recovered Aβ42 to Aβ40

Chain of endogenous Aβ(1-42) in human CSF (human) (peptide, as listed by the source): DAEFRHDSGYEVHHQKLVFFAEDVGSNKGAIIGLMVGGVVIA
Chain of endogenous Aβ(1-40) in human CSF (human) (peptide, as listed by the source): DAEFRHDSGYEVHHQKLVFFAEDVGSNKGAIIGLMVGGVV

Row | Substance | Reflective Density (RD) [10 pmol] [1] [RD] | Reflective Density (RD) [10 pmol] [2] [RD] | Ratio Aβ42/Aβ40+42 × 100% [3] [%] | Aβ(1-42) recovered after immunoprecipitation [4] | Aβ42/40 [5] [%] | Aβ(1-40) recovered after immunoprecipitation [6] | Aβ40 urea-PAGE after immunoprecipitation [7] [pg/mL] | Aβ42 urea-PAGE after immunoprecipitation [8] [pg/mL] | Aβ(1-40) recovered after immunoprecipitation [9] | Fibril bound Ab fraction [10] [%] | Aβ(1-42) recovered after immunoprecipitation [11] | Aβ42/40 [12] [%]
1 | mMAb 4G8 (Signet Inc. Cat# 9220) (antibody) | 0.7 | 3.1 | – | – | – | – | – | – | – | – | – | –
2 | mMAb 6E10 (Signet Inc. Cat.# 9320) (antibody) | – | – | 4.4 | 2040 | 20.6 | 8280 | 4390 | 202 | 5610 | 98 | 1450 | 17.4
